# From the supplement of paper PMC9170038
# System: MS2 coat protein
# Test: apparent KD of MS2 coat protein; designed switch direction (-1 OFF switch, 1 ON switch): -1; higher = weaker reporter binding
# How it was run: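 The apparent KD reported per design is the median over clusters of curve fits to normalised cluster fluorescence. The RNA switches were transcribed on Illumina chips by stalled E. coli RNA polymerase. SNAP-549-labelled MS2 coat protein was titrated from 0.7 or 1.5 nM, doubling up to 3 µM, in Tris-HCl pH 7.5 buffer containing KCl, MgCl2, BSA, DTT, tRNA and Tween-20, with no input, 200 uM small-molecule ligand, or an oligonucleotide input.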
# [1] = Eterna round: R95, input ligand: FMN 200 uM
# [2] = Eterna round: R95, input ligand: microRNA oligo, concentration not stated
# [3] = Eterna round: R95, input ligand: none
# [4] = input ligand: microRNA oligo, concentration not stated
Sequence,apparent KD of MS2 coat protein (input ligand: FMN 200 uM),apparent KD of MS2 coat protein (input ligand: none),apparent KD of MS2 coat protein [1],apparent KD of MS2 coat protein [2],apparent KD of MS2 coat protein [3],apparent KD of MS2 coat protein [4]
"UAAAUGUCAGGAUAUUGUUAAUUUAGUUGUUUGUAUUAGUUCGAGAAGGGACAUGAGGAUCACCCAUGUUAUUU [Ex4 #55] (Eterna round: R97, puzzle: Exclusion 4)",0.0336 µM,0.0319 µM,,,,
"GAUUAUGCGAGCUUUAGGGACAUGAGGAUCACCCAUGUUCGUCUUAUUGAUCUAAGUGCACUAACAUACCUAAAUCU [JMF 29] (puzzle: Sensor v3, turn-off variant 1)",,,0.0251 µM,0.0537 µM,0.027 µM,
"UGAGCUUCAGGAUAUACGUGACGUCCGUGAGGACGAAGGUUACAUGAGGAUCACCCAUGUAGAAGGGAAGUUCU [Mat - Exclusion 2 - JL Mod - D31] (Eterna round: R97, puzzle: Exclusion 2)",0.0608 µM,0.0316 µM,,,,
"AACCUGAGGCAAAGCUUUAGGUGUACAUGAGGAUCACCCAUGUAGGAUAUGGUAAGCAAAGCUUACCAGAAGGACAUAAUGAUA [Mat - Exclusion NG 3 - Mod of JL - D49] (Eterna round: R96, puzzle: Exclusion NG 3)",0.0865 µM,0.0594 µM,,,,0.0376 µM
"UAGCAAUGAGAUGGGUUCCACAUGAGGAUCACCCAUGUCCAAGCUCAGAGCUCGUCUUAUUUGAGAUACUUCACUGU [Eternabot (L2) Solution 50] (Eterna round: R97, puzzle: Sensor, turn-off variant 1)",0.0411 µM,0.0434 µM,,,,
"GGGAACCGAGGAUAUCAGUACACGCACAUGAGGAUCACCCAUGUGCUCCUCGGUGCUGUCUGAGAAGGCGGUGAGA [Raonxe] (Eterna round: R97, puzzle: Exclusion 5)",0.0269 µM,0.0176 µM,,,,
"GCUGGUCAAGGAUAUGCAUUCGUGCUUCGGCACGUAAGGUCACAUGAGGAUCACCCAUGUAGAAGGUGACCAGC [E2/6-C1] (Eterna round: R97, puzzle: Exclusion 2)",0.0316 µM,0.0209 µM,,,,
"AAAUACCGGUGAGGAUAUUUAUAAUAGAGCUUUAUGAUAUACAUGAGGAUCACCCAUGUUACUUUAAAGAAGGCAUCGGAAUAA [Mat - Exclusion NG 2 - Mod of JL - D93] (Eterna round: R96, puzzle: Exclusion NG 2)",0.0154 µM,0.0189 µM,,,,0.0139 µM
"GACCCUAGGGUCAGACGCACAAGCUUUUUGCUCGUUUUAACAUGAGGAUCACCCAUGUCUAGUGGAUCUGAUCGGGC [Ongege] (puzzle: Sensor v3, turn-off variant 2)",,,0.0263 µM,0.151 µM,0.0295 µM,
"GCACUGGCAGGAUAUACAUGAGGAUCACCCAUGUGAUCCCUUAAGUACAAAAGUACUAGUAGAAGGGCCUGUGC [Omei Ex3 Model Bachelor's Dilema v46] (Eterna round: R97, puzzle: Exclusion 3)",0.307 µM,0.785 µM,,,,
AUCUUGUCAGGAUAUCUGACAAGUGACUUCGGUCACAGUUCAGAGAAGGUACAUGAGGAUCACCCAUGUAGAAC [Ex4-3: 39] (puzzle: Exclusion 4),,,,0.0179 µM,,
CCCAGGGCAGGAUAUAGAGGGUGAAACAUGAGGAUCACCCAUGUGACCUCGGAACAGCUGCUAGAAGGGCCAAAUU [Eszaraxe] (puzzle: Exclusion 5),,,0.0192 µM,0.0153 µM,0.0163 µM,
"CAUAUGGGAGGAUAUGCAUAGAUAAAGAAACAUGUUCAACCACAUGAGGAUCACCCAUGUAGAAGGCCCAUAUG [Mat - Same state - Mayanna Mod - D102] (Eterna round: R96, puzzle: Exclusion 2)",0.266 µM,0.0328 µM,,,,0.0227 µM
"AUUAAAACGGCAGGAUAUCAGCGACAUGAGGAUCACCCAUGUUAGGGCUGACCCUGGAGUCUGGCUGAGAAGGGCCGACUCUCA [Riququ] (Eterna round: R96, puzzle: Exclusion NG 2)",0.192 µM,0.0599 µM,,,,0.0332 µM
UUCAUGUGAGGAUAUGUGUACUGUUUUUUGUUUAGAUGUACACAGAAGGCACAUGAGGAUCACCCAUGUAGUAC [Ex4 - 3 - 32] (puzzle: Exclusion 4),,,,0.03 µM,,
"UAAUAACAAGCAGGAUCCUACAUGAGGAUCACCCAUGUGCUCGUCUUAUAAAGUACUAUCACGAAAGUGAUAGUACA [Mat - Sensor v3 - turn-off var 1 - Eli Mod - D70] (puzzle: Sensor v3, turn-off variant 1)",,,0.272 µM,0.148 µM,0.315 µM,
"UUUUUUGUUGUGAGGAUAUCGUUGUUGUUGUGGAUCGAGAAGGCACAUGAGGAUCACCCAUGUUUGUUGUGGUU [JR_BMOE4_Sub086] (Eterna round: R96, puzzle: Brourd's mod of Exclusion 4)",0.272 µM,0.109 µM,,,,0.0812 µM
"ACGUGCACUCAGGAUAUGCUACGCCUGCUCUCAGCAGAAGGGAGUACAUGAGGAUCACCCAUGUGACAUCUGAU [Eternabot (Original) Solution 13] (Eterna round: R97, puzzle: Exclusion 6)",0.0443 µM,0.026 µM,,,,

Sequence,apparent KD of MS2 coat protein (input ligand: FMN 200 uM),apparent KD of MS2 coat protein (input ligand: none),apparent KD of MS2 coat protein [1],apparent KD of MS2 coat protein [2],apparent KD of MS2 coat protein [3],apparent KD of MS2 coat protein [4]
"UAUUCACAUGAGGAUCACCCAUGUCAGGAUAUAUUCGAUAUAUGGAAACAUAUAUCGAAUAGAAGGGACUAGCG [Jieuxxlusion 10 - Jieux - Exclusion 1] (Eterna round: R97, puzzle: Exclusion 1)",0.0546 µM,,,,,
GGUGCGUAUGUGAGGAUAUGCUGGUCCUUGGAUCAGCAGAAGGCACAUGAGGAUCACCCAUGUGGUGUCGUACU [salish99_Bmod_Ex4_013] (puzzle: Brourd's mod of Exclusion 4),,,,0.266 µM,,
"UUCCUCAGCUAGGAUAUCAAGGCACCACCCUAAUGAGAAGGAGCAACAUGAGGAUCACCCAUGUGGGUUUCUUA [Aterre] (Eterna round: R97, puzzle: Exclusion 6)",0.143 µM,0.0549 µM,,,,
"UGCCUAUGAGGAUAUACGUAGAAAUAGAUUCAUGUAAAACUACAUGAGGAUCACCCAUGUAGAAGGCAUGGGCU [Mat - Exclusion 2 - JL Mod - D49] (Eterna round: R97, puzzle: Exclusion 2)",0.0275 µM,0.016 µM,,,,
"UGUAACCGAGGAUAUACAUGAGGAUCACCCAUGUAAUGUAGUAUAGUGUAUGUAAGGUGUAGAAGGUGGGAUGU (Eterna round: R97, puzzle: Exclusion 3)",0.0484 µM,0.0747 µM,,,,
"GGAUUUACUGAGGAUAUUGCAUCACCCGACUGAUAAGAAGGCAGAACAUGAGGAUCACCCAUGUGGGUAGUCAA [Bingo-Bango-3] (Eterna round: R97, puzzle: Exclusion 6)",0.0296 µM,0.0195 µM,,,,
UCGCUGCGAGGAUAUACAUGAGGAUCACCCAUGUACGGGUCCGGGUCUUUGUCGAUUGGUAGAAGGCGCAGUGA [JL Laongeedie mod 10] (puzzle: Exclusion 3),,,,0.0503 µM,,
UUUUAACAUGAGGAUCACCCAUGUGAGGAUAUCGAAAUUUAUAUUAAUAUUUUUAAUUCGAGAAGGCACAUUUU [JMF 69] (puzzle: Exclusion 1),,,,0.136 µM,,
UAUAAGCUAGGAUAUCGCUGAGUAAACAUGAGGAUCACCCAUGUGGACCAUGAUUGCCACCGAGAAGGAGCGGGAA [Aonat] (puzzle: Exclusion 5),,,0.119 µM,0.0537 µM,0.0568 µM,
AAAUUCUGAGGAUAUCGAUGUUUGUACAUGAGGAUCACCCAUGUCCUUUUUAUUUAAUCCCGAGAAGGCAGUGUAU [JR_E5_Sub098] (puzzle: Exclusion 5),,,,0.0326 µM,,
"CAGUACUGAGGAUAUACAUGAGGAUCACCCAUGUGUGUGAGAAAAUUAAUAAAAGAAUGUAGAAGGCGGUGCUG [JR_Ex3_Sub041] (Eterna round: R97, puzzle: Exclusion 3)",0.645 µM,0.357 µM,,,,
"UUGUACAUAGGAUAUAGUUGUUUGUACAUGAGGAUCACCCAUGUUAUGUAUGUUUUGCUUCUAGAAGGAUGUUGUU [JR_E5_Sub004] (Eterna round: R96, puzzle: Exclusion 5)",0.0285 µM,0.0345 µM,,,,0.0258 µM
"AUUAUGUUAGGAUAUGCUUAUGGUGGAUAGUCCAGUAUGAUGUAGAAGGGACAUGAGGAUCACCCAUGUGCUGA [EX4 #34] (Eterna round: R97, puzzle: Exclusion 4)",0.0469 µM,0.0419 µM,,,,
"UCUGGUCGAGGAUAUAUAUGACGUGCUUCGGCACGAAGGUCACAUGAGGAUCACCCAUGUAGAAGGCGACCAGA [E2/9-A3] (Eterna round: R97, puzzle: Exclusion 2)",0.375 µM,0.0521 µM,,,,
CCAGCGUAUGUGAGGAUAUGCUGGUCCUUGGAUCAGCAGAAGGCACAUGAGGAUCACCCAUGUGGAAACGUUGG [JL bmx4 3.41] (puzzle: Brourd's mod of Exclusion 4),,,,0.0164 µM,,
"CUGAACCCGGUAGGAUAUAUUGUGGGCAGGCGUGGAACGACAUGAGGAUCACCCAUGUAAUUGAGGUAGAAGGGCCGAGAGAUU [Excl-NG2-LRO14] (Eterna round: R96, puzzle: Exclusion NG 2)",0.0328 µM,0.0371 µM,,,,0.0259 µM
"ACAUUGAAUGUGAGGAUAUCGAUGUGAUGGGUUGUCGAGAAGGCACAUGAGGAUCACCCAUGUGGGAUGUAGCA [JR_BMEx4_Sub033] (Eterna round: R97, puzzle: Brourd's mod of Exclusion 4)",0.349 µM,0.0912 µM,,,,
